# Data published in the RNAGym collection of RNA variant scans (doi:10.1093/nar/gkz1192).
# B1: CPEB3 Ribozyme (parent)
# chain: UAACAGGGGGCCACAGCAGAAGCGUUCACGUCGCAGCCCCUGUCAGAUUCUGGUGAAUCUGCGAAUUCUGCUGUAUAUCUC
# Variants of: B1
# Assay: self-cleavage, relative activity (ratio to wild type); higher = more cleavage; in vitro, sequencing
# Method in brief: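 Libraries of CPEB3 self-cleaving ribozyme mutants came from rounds of error-prone PCR and carried barcodes, which DNA sequencing matched to variants. In vitro transcription used T7 RNA polymerase at 37°C for 5 hours, with a further 15 min in DNase I before EDTA stopped the reaction; the ribozymes cleaved during both steps. The RNA was reverse transcribed with template switching and sequenced on Illumina. Relative activity is the cleaved/total read fraction of a variant divided by that of the unmutated ribozyme, averaged over three batches with at least 5 reads.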
row,Variant,self-cleavage
1,U80C,1.08
2,U80G,1.18
3,U80A,1.13
4,C79A U80C,1.23
5,U80C C81A,1.23
6,U80C C81U,1.01
7,C81U,1.18
8,C81A,1.05
9,C81G,1.14
10,U80G C81U,1.39
11,C79G U80C,0.27
12,C79U U80A,1.24
13,C79U,1.17
14,C79G,1.13
15,U80A C81U,1.24
